± gives the standard deviation of the averaged measurements.
Assay: total protein half-life in vivo (active degradation + dilution); higher = more stable protein
[1] = E. coli NCM3722 delta-clpP delta-lon delta-hslV, growth: N-lim chemostat, doubling time 6 h
[2] = E. coli NCM3722 delta-clpP, growth: N-lim chemostat, doubling time 6 h
[3] = E. coli NCM3722 delta-hslV, growth: N-lim chemostat, doubling time 6 h
[4] = E. coli NCM3722 delta-lon, growth: N-lim chemostat, doubling time 6 h
[5] = E. coli NCM3722 delta-smpB, growth: N-lim chemostat, doubling time 6 h
[6] = wild type E. coli NCM3722, growth: C-lim chemostat, doubling time 3 h
[7] = wild type E. coli NCM3722, growth: C-lim chemostat, doubling time 6 h
[8] = wild type E. coli NCM3722, growth: C-lim chemostat, doubling time 12 h
[9] = wild type E. coli NCM3722, growth: N-lim chemostat, doubling time 6 h
[10] = wild type E. coli NCM3722, growth: N-lim chemostat, doubling time 12 h
[11] = wild type E. coli NCM3722, growth: P-lim chemostat, doubling time 6 h
[12] = wild type E. coli NCM3722, growth: P-lim chemostat, doubling time 12 h

MMNKSNFEFLKGVNDFTYAIACAAENNYPDDPNTTLIKMRMFGEATAKHLGLLLNIPPCENQHDLLRELGKIAFVDDNILSVFHKLRRIGNQAVHEYHNDLNDAQMCLRLGFRLAVWYYRLVTKDYDFPVPVFVLPERGENLYHQEVLTLKQQLEQQVREKAQTQAEVEAQQQKLVALNGYIAILEGKQQETEAQTQARLAALEAQLAEKNAELAKQTEQERKAYHKEITDQAIKRTLNLSEEESRFLIDAQLRKAGWQADSKTLRFSKGARPEPGVNKAIAEWPTGKDETGNQGFADYVLFVGLKPIAVVEAKRNNIDVPARLNESYRYSKCFDNGFLRETLLEHYSPDEVHEAVPEYETSWQDTSGKQRFKIPFCYSTNGREYRATMKTKSGIWYRDVRDTRNMSKALPEWHRPEELLEMLGSEPQKQNQWFADNPGMSELGLRYYQEDAVRAVEKAIVKGQQEILLAMATGTGKTRTAIAMMFRLIQSQRFKRILFLVDRRSLGEQALGAFEDTRINGDTFNSIFDIKGLTDKFPEDSTKIHVATVQSLVKRTLQSDEPMPVARYDCIVVDEAHRGYILDKEQTEGELQFRSQLDYVSAYRRILDHFDAVKIALTATPALHTVQIFGEPVYRYTYRTAVIDGFLIDQDPPIQIITRNAQEGVYLSKGEQVERISPQGEVINDTLEDDQDFEVADFNRGLVIPAFNRAVCNELTNYLDPTGSQKTLVFCVTNAHADMVVEELRAAFKKKYPQLEHDAIIKITGDADKDARKVQTMITRFNKERLPNIVVTVDLLTTGVDIPSICNIVFLRKVRSRILYEQMKGRATRLCPEVNKTSFKIFDCVDIYSTLESVDTMRPVVVRPKVELQTLVNEITDSETYKITEADGRSFAEHSHEQLVAKLQRIIGLATFNRDRSETIDKQVRRLDELCQDAAGVNFNGFASRLREKGPHWSAEVFNKLPGFIARLEKLKTDINNLNDAPIFLDIDDEVVSVKSLYGDYDTPQDFLEAFDSLVQRSPNAQPALQAVINRPRDLTRKGLVELQEWFDRQHFEESSLRKAWKETRNEDIAARLIGHIRRAAVGDALKPFEERVDHALTRIKGENDWSSEQLSWLDRLAQALKEKVVLDDDVFKTGNFHRRGGKAMLQRTFDDNLDTLLGKFSDYIWDELA
total protein half-life in vivo [1]: 5.34 ± 0.76 h
total protein half-life in vivo [2]: 4.93 ± 0.26 h
total protein half-life in vivo [3]: 3.45 ± 0.22 h
total protein half-life in vivo [4]: 3.899 ± 0.015 h
total protein half-life in vivo [5]: 3.07 ± 0.13 h
total protein half-life in vivo [6]: 2.49 ± 0.13 h
total protein half-life in vivo [7]: 4.7 ± 0.1 h
total protein half-life in vivo [8]: 7.2 ± 0.38 h
total protein half-life in vivo [9]: 3.52 ± 0.2 h
total protein half-life in vivo [10]: 5.31 ± 0.98 h
total protein half-life in vivo [11]: 3.94 ± 0.11 h
total protein half-life in vivo [12]: 6.58 ± 0.092 h

MDNRGEFLNNVAQALGRPLRLEPQAEDAPLNNYANERLTQLNQQQRCDAFIQFASDVMLTRCELTSEAKAAEAAIRLCKELGDQSVVISGDTRLEELGISERLQQECNAVVWDPAKGAENISQAEQAKVGVVYAEYGLTESGGVVLFSAAERGRSLSLLPEYSLFILRKSTILPRVAQLAEKLHQKAQAGERMPSCINIISGPSSTADIELIKVVGVHGPVKAVYLIIEDC
total protein half-life in vivo [1]: 4.84 ± 0.23 h
total protein half-life in vivo [2]: 1.46 h
total protein half-life in vivo [3]: 1.64 h
total protein half-life in vivo [4]: 2.67 h
total protein half-life in vivo [5]: 1.78 ± 0.043 h
total protein half-life in vivo [6]: 2.33 ± 0.14 h
total protein half-life in vivo [7]: 3.75 ± 0.5 h
total protein half-life in vivo [8]: 5.23 ± 0.45 h
total protein half-life in vivo [10]: 2.49 h
total protein half-life in vivo [11]: 2.13 h

MKKLILIAIMASGLVACAQSTAPQEDSRLKEAYSACINTAQGSPEKIEACQSVLNVLKKEKQHQQFADQESVRVLDYQQCLRATQTGNDQAVKADCDKVWQEIRSNNK
total protein half-life in vivo [5]: 5.85 h
total protein half-life in vivo [8]: 9.68 ± 2.6 h
total protein half-life in vivo [10]: > 16 h

MKSMNIAASSELVSRLSSHRRVVALGDTDFTDVAAVVITAADSRSGILALLKRTGFHLPVFLYSEHAVELPAGVTAVINGNEQQWLELESAACQYEENLLPPFYDTLTQYVEMGNSTFACPGHQHGAFFKKHPAGRHFYDFFGENVFRADMCNADVKLGDLLIHEGSAKDAQKFAAKVFHADKTYFVLNGTSAANKVVTNALLTRGDLVLFDRNNHKSNHHGALIQAGATPVYLEASRNPFGFIGGIDAHCFNEEYLRQQIRDVAPEKADLPRPYRLAIIQLGTYDGTVYNARQVIDTVGHLCDYILFDSAWVGYEQFIPMMADSSPLLLELNENDPGIFVTQSVHKQQAGFSQTSQIHKKDNHIRGQARFCPHKRLNNAFMLHASTSPFYPLFAALDVNAKIHEGESGRRLWAECVEIGIEARKAILARCKLFRPFIPPVVDGKLWQDYPTSVLASDRRFFSFEPGAKWHGFEGYAADQYFVDPCKLLLTTPGIDAETGEYSDFGVPATILAHYLRENGIVPEKCDLNSILFLLTPAESHEKLAQLVAMLAQFEQHIEDDSPLVEVLPSVYNKYPVRYRDYTLRQLCQEMHDLYVSFDVKDLQKAMFRQQSFPSVVMNPQDAHSAYIRGDVELVRIRDAEGRIAAEGALPYPPGVLCVVPGEVWGGAVQRYFLALEEGVNLLPGFSPELQGVYSETDADGVKRLYGYVLK
total protein half-life in vivo [1]: 4.97 ± 0.45 h
total protein half-life in vivo [2]: 4.68 ± 0.86 h
total protein half-life in vivo [3]: 4.28 ± 0.14 h
total protein half-life in vivo [4]: 4.69 ± 0.36 h
total protein half-life in vivo [5]: 4.34 ± 0.089 h
total protein half-life in vivo [7]: 5.18 ± 0.13 h
total protein half-life in vivo [8]: 8.46 ± 1.1 h
total protein half-life in vivo [9]: 4.44 ± 0.13 h
total protein half-life in vivo [10]: 8.46 ± 0.59 h
total protein half-life in vivo [11]: 6.15 ± 0.14 h
total protein half-life in vivo [12]: 12.3 ± 1.8 h

MKMANHPRPGDIIQESLDELNVSLREFARAMEIAPSTASRLLTGKAALTPEMAIKLSVVIGSSPQMWLNLQNAWSLAEAEKTVDVSRLRRLVTQ
total protein half-life in vivo [1]: 3.73 ± 0.35 h
total protein half-life in vivo [5]: 1.217 ± 0.0059 h
total protein half-life in vivo [6]: 1.58 h
total protein half-life in vivo [7]: 2.32 h
total protein half-life in vivo [8]: 2.59 h
total protein half-life in vivo [12]: 3.05 ± 1.1 h

MTKYALVGDVGGTNARLALCDIASGEISQAKTYSGLDYPSLEAVIRVYLEEHKVEVKDGCIAIACPITGDWVAMTNHTWAFSIAEMKKNLGFSHLEIINDFTAVSMAIPMLKKEHLIQFGGAEPVEGKPIAVYGAGTGLGVAHLVHVDKRWVSLPGEGGHVDFAPNSEEEAIILEILRAEIGHVSAERVLSGPGLVNLYRAIVKADNRLPENLKPKDITERALADSCTDCRRALSLFCVIMGRFGGNLALNLGTFGGVFIAGGIVPRFLEFFKASGFRAAFEDKGRFKEYVHDIPVYLIVHDNPGLLGSGAHLRQTLGHIL [P0A6V8]
total protein half-life in vivo [1]: 5.167 ± 0.05 h
total protein half-life in vivo [2]: 5.45 ± 0.21 h
total protein half-life in vivo [3]: 4.8 ± 0.84 h
total protein half-life in vivo [4]: 5.7 ± 0.3 h
total protein half-life in vivo [5]: 5.16 ± 0.58 h
total protein half-life in vivo [6]: 2.78 ± 0.35 h
total protein half-life in vivo [7]: 6.3 ± 0.76 h
total protein half-life in vivo [9]: 5 ± 1.4 h
total protein half-life in vivo [10]: 9.21 ± 0.77 h
total protein half-life in vivo [12]: 15.2 ± 1.1 h

MGRILLDLSNEVIKQLDDLEVQRNLPRADLLREAVDQYLINQSQTARTSVPGIWQGCEEDGVEYQRKLREEW [P0AFU6]
total protein half-life in vivo [2]: 6.89 h

MTAINRILIVDDEDNVRRMLSTAFALQGFETHCANNGRTALHLFADIHPDVVLMDIRMPEMDGIKALKEMRSHETRTPVILMTAYAEVETAVEALRCGAFDYVIKPFDLDELNLIVQRALQLQSMKKEIRHLHQALSTSWQWGHILTNSPAMMDICKDTAKIALSQASVLISGESGTGKELIARAIHYNSRRAKGPFIKVNCAALPESLLESELFGHEKGAFTGAQTLRQGLFERANEGTLLLDEIGEMPLVLQAKLLRILQEREFERIGGHQTIKVDIRIIAATNRDLQAMVKEGTFREDLFYRLNVIHLILPPLRDRREDISLLANHFLQKFSSENQRDIIDIDPMAMSLLTAWSWPGNIRELSNVIERAVVMNSGPIIFSEDLPPQIRQPVCNAGEVKTAPVGERNLKEEIKRVEKRIIMEVLEQQEGNRTRTALMLGISRRALMYKLQEYGIDPADV
total protein half-life in vivo [1]: 5.23 ± 2.1 h
total protein half-life in vivo [2]: 3.82 h
total protein half-life in vivo [3]: 2.7 h
total protein half-life in vivo [4]: 3.5 h
total protein half-life in vivo [5]: 2.912 ± 0.0036 h
total protein half-life in vivo [6]: 3.09 ± 0.26 h
total protein half-life in vivo [7]: 5.56 ± 0.094 h
total protein half-life in vivo [8]: 10.6 ± 2.5 h
total protein half-life in vivo [9]: 3.16 h
total protein half-life in vivo [11]: 4.99 ± 0.19 h
total protein half-life in vivo [12]: 10.9 ± 1.7 h

Source: the supplement of paper PMC11246515
